Kd data for 1 substance are collected here from PMC10294631.

This data set relates to CsrA-His6. The data set can be described thus: EMSA. (In general: In EMSA bound probe runs differently from free probe, usually more slowly.)

As a reminder, the Kd is the free concentration of one partner at which half of the binding sites on the other are occupied at equilibrium, for simple one-to-one binding. Higher therefore signals a looser complex. Regarding hmsE RNA 104 nt (GGA2 and GGA3), the Kd was determined as 138 nM.
